This is an account of results in patent US20040048377A1.

Where only a bound is given, the exact number is not on record here.

Chain of mouse Grg4 (mouse) (Q62441 whole entry, the tested form may be a part): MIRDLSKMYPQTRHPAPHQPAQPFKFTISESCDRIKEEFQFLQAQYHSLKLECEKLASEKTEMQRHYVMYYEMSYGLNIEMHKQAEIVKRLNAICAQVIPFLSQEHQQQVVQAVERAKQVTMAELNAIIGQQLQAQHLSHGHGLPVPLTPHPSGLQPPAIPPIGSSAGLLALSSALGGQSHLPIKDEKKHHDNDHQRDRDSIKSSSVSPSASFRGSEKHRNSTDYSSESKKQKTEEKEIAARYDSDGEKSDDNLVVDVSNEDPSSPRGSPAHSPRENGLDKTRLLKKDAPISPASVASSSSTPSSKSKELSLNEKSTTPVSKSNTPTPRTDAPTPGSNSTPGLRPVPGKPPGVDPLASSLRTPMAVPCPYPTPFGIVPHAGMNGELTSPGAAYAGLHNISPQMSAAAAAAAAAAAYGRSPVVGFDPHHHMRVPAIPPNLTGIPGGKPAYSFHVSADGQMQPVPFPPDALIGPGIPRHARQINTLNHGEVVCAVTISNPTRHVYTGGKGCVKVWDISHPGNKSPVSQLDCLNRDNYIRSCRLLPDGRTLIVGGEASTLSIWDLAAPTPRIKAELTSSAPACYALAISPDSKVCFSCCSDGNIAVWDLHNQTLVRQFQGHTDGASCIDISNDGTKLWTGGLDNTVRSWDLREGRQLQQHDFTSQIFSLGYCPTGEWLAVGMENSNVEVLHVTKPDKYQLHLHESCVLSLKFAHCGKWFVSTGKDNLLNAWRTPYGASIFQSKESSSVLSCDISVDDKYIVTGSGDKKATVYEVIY
Chain of mouse Grg4 (Q62441 whole entry): as the sequence (Q62441 whole entry, the tested form may be a part) above
Chain of Nkx6.1ΔTN (Nkx6.1 with the TN domain deleted, Δaa 90-113) (rat) (O35762 other isoform, or with tags, fused parts or gaps mutant): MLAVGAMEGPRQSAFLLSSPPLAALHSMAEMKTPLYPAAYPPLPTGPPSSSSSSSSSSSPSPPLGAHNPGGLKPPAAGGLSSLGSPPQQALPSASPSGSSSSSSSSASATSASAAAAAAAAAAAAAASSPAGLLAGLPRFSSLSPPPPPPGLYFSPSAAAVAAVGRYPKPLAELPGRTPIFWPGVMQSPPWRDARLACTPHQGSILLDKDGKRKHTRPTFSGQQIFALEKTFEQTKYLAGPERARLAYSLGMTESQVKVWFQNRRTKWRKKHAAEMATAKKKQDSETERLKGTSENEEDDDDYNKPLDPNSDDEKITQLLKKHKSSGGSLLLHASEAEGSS

One assay addresses mouse Grg4 (mouse) (UniProt Q62441). Put plainly: cell-based or functional assay.
“Gal-Nkx2.2 (full-length Nkx2.2 fused to the DNA binding domain of yeast Gal4) (from UniProt P04386 1-147)” had a repressor activity in the UAS-luciferase reporter assay in COS-7 cells, with increasing amounts of co-transfected Grg4 of less than 10 fold. Substance “Gal-Nkx2.9 (full-length Nkx2.9 fused to the DNA binding domain of yeast Gal4) (from UniProt P04386 1-147; O70584 1-235)” returned a repressor activity in the UAS-luciferase reporter assay in COS-7 cells, with increasing amounts of co-transfected Grg4 of less than 10 fold. Substance “Gal-Nkx6.1 (full-length Nkx6.1 fused to the DNA binding domain of yeast Gal4) (from UniProt P04386 1-147; O35762 1-365)” displayed a repressor activity in the UAS-luciferase reporter assay in COS-7 cells, with increasing amounts of co-transfected Grg4 of less than 10 fold. The same measure, in the same setting: next, “Gal-Nkx6.1ΔTN (Nkx6.1 lacking aa 90-113 fused to the DNA binding domain of yeast Gal4) (from UniProt P04386 1-147; O35762 1-89; O35762 114-365)”: 2 fold. The substance “Gal-Nkx6.2 (full-length Nkx6.2 fused to the DNA binding domain of yeast Gal4) (from UniProt P04386 1-147; P43688 1-289)” returned a repressor activity in the UAS-luciferase reporter assay in COS-7 cells, with increasing amounts of co-transfected Grg4 of less than 10 fold. “Gal-Nkx6.2ΔTN (Nkx6.2 lacking aa 2-73 fused to the DNA binding domain of yeast Gal4) (from UniProt P04386 1-147)” came in with a repressor activity in the UAS-luciferase reporter assay in COS-7 cells, with increasing amounts of co-transfected Grg4 of 2 fold.

Another assay concerns the target Nkx6.1ΔTN (Nkx6.1 with the TN domain deleted, Δaa 90-113) (rat) (UniProt O35762). Put plainly: immuno-precipitation, 35S-labelled Grg4, Nkx protein on antibody-proteinA-sepharose.
With mouse Grg4 (from UniProt Q62441 1-773), the fold reduction of the interaction with Grg4 compared to the full-length protein is 5 fold.
